The values below come from a protein production outcome set (Wang et al. 2014).
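Also: failed if final PepcDB status was selected cloned or expressed and not failed if soluble or beyond.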

A short description of the data set: label from the status in PepcDB records.
For the sequence “MIEIKNVNKVFYQGSKEILALKDINLHIAKGTIFGVIGSSGAGKSTLIRCVNMLEAPSSGSIIVDGVDLTTLSKKQLVETRRNIGMIFQHFNLLSSRTVFDNVALPLELAGKDKSQITTKVTELLKLVGLADKHESYPSNLSGGQKQRVAIARALASDPSVLLCDEATSALDPATTQSILELLKEINRKLNITILLITHEMEVVKSICHEVAIIGGGELVEKGTVGDIFAHPKTELAHEFIRSTLDLSIPEDYQARLQPNRVEGSYPLVRMEFTGATVDAPLMSQISRKYNIDVSILSSDLDYAGGVKFGMMVAELFGNEQDDSAAIEYLREHNVKVEVLGYVL”, the protein production result is given as “not failed”.

With “TGQGWMLNLRREKFQDPKVREALNLMFNFEWSNQTLFYGLYTRVDSFWENSYLEAEGAPSEAEAALLKPLVDEGLLPASILTEPPVSPPVSGERQLDRRNLRAASKLLDEAGWTVGSDGMRRNAKGEVLRVEFLNDSQTFDRVISPFVENLRALGVDALMTRVDNAQMESRTRPPSYDFDITTGNARTNYISGAELKQYYGSETADISAFNIMGLKDKAVDRMIEVVLAAKTSEELEVATKALDRVLRLQRFWVPQWYKA”, the protein production result was “failed”.

As to “MKKYLDKLQNMPIGISGTCLAFITLSNSWNLKGINYFKPIAIFLAVCMLSLMILRLIRFPKVMYEELKNPVTGTFYPTMGMVVWLVSGFFYPYFPVVCSWLWIAAVIYHYGIVIFYTIIRIKERKFENIMPTCFIVYTGMITGSVASKGMDGVIPQIPQIAHFMLMFGFIFYTILLPLVLYIVFKSEILDDHKLPTVGIICSPAPLGVVGILTIEPNPNPYMLAWLIITGLILLVVVYGYILKLFKEGFKPSYAAFTFPLAIATLSAFKLSTYFTGLGYAKMANLFKFLGDVEIFIATYVIFFMLLNFLNMFFKAISPKLGEYVEEEEELIGGTLYSK”, the protein production result was “failed”.

Regarding “MGKKTENLKIDAKKSFLKRIAKNVKVSEGERAVEDILRCIYRNQPISTKKIGQYVKLPLPIVSKVRSILERESLLKRDDKGAVLSKKGIDFVENELGLKLKSDMKCPVCSGRNIVFDEKFEKILKKHKTYAKLRPQVNTMIDQSFATPETATARAAIMADRGDLEGKRVLFVGDDDLASIPTAMTGLCSEVVVLDIDDRLLKLISEVSKKENLNIRTVKWDFKNELPSEFVNKFDTIFTDPPYTLNGAVLFMSRGIEALGDNGILYLAFSHKPVEEYIELQKSINNMNFLIYELIPGFNFYEGTEIIGNTTFLARLVGKNLKKIEVNSEKIYTGELKPTLRYYQCMNCKKIHEVGNKVKRIEDLTCECGGKK”, the protein production result was “failed”.

With “MELLLGIVIVVTCWMVVRIIRSSKNQEGYKRWRAGNYASENPYAKEKASGPLSQGLFSKRVRTTGVRRFDDGAIRWCANLLATEESRLREVLDYIPRQYTCFHVRKRSGGFRYISAPAGDFRSMQQTIYHRILLLANIHPAVTGFCPGKSVSDNARVHLGRKNVLKVDLHDFFPSIRSPRVRAAFREMGYSRPIAKVLAELCCLRCCLPQGAPTSPALSNIIAYPMDKKMMALAGEYGLVYTRYADDLTFSGDYLPKDEVLVRIHRIIREEGFTMNVKKTRFLSEHKRKIITGVSVSSGKKMTLPKVKKREIRKNVHYVLTKGLVGHQEHIGSTDPVYLKRLLGSLCYWRSIEPDNRYVSDSITALKRLM”, the protein production entry is on record as “failed”.

For “DPREVAGGYVEKLCARYGLADVRVVQSPAMGRGLTGELGNAGAALLEEVVKDGMTVGVSWGDTMLAVSEHLRTLPLVDVKVVQLKGGHSHTARNTNDMVTLTRFSRALNAEMMMLPLPVILDSKEAKELVVKDRHIASMLNLGAHCDVAVFTVGAVKSESLLLNLGYLSPSEQARLMEHAVGDVCSRFYDAQGEVADPDIDARTVGISLADLKKRPVRVLVAGGLEKAPAIEAALRTGVATHVVIDHATAQRVVEMA”, the protein production result is “failed”.

Take “MASSVDEEALHQLYLWVDNIPLSRPKRNLSRDFSDGVLVAEVIKFYFPKMVEMHNYVPANSLQQKLSNWGHLNRKVLKRLNFSVPDDVMRKIAQCAPGVVELVLIPLRQRLEERQRRRKQ”: the protein production entry is given as “not failed”.

Consider “QLREIVEKVSRVDDVHLALDILVKETCAALRTECCTIYLANEEMQRLELMATQGLIFEGDSIHINFNEGLVGLVKRSAEPLNLAEASKHPEFKFFPQLGEQVYHSFLATPIIHRKQVLGVLVIQQKTPRLFSEMEESFLVTLSAQLAVIIAHAQSLGHWQ”, for which the protein production entry was “failed”.

Turning to “MVGSSETETKEHREAEERSSRESATATGKVSGKENELRPTYVYLLMMPENHNVDVQQTLQEQRKRNIKKARIEARLKLDQIRPTVVLENSRATKMMIEWGFTDFRKLQGSNLGNKKWICWVRKHCC”, the protein production entry is reported as “not failed”.

For “MLNLSQNGCSVWVASSTEMVLTPTAVALGKFDGVHLGHQRVIQPVLQSTRSAQTWGDALDSSAQSANPPAAPQERIYSTVVTFRPHPQEFFTGQARTWLTPLDEKVQQLRSLGVDQLVLLPFDKELTALSPEEFVEKILVQQLRCQRISVGQDFCFGKQRRGTAKDLQLIAAKYHIPVSIVPLQTSDGQFLEDGNCGSFESLEDAPISTSLIRQALETGDIKTANRFLGRPYILIGVVVEGEQLGRTIGFPTANLELPKDKFVPRQGVYAVRVKILGESADANIPLEILGVMNIGNRPTVNGTYSSVEVYLLDWSGDLYGKELAVQLVDFLRPEQKFPSLEALKAQIQQDCTVARQILSREN”, the protein production entry is “failed”.

For “MNRNRQLSDPSRFSGMAAGFFMATLGAVLFSGKAIVVKFTYRYGIDAVTLIAFRMLFAMPFFAAVAWWQARRAARGELPVLSWRERGQLCALGLLGYYLSSFLDFLGLRHITAGLERLILFLSPSLVVLLSAWWLKRPVTRRQWGAMLLSYVGVALVLSHDLSQSGAGADVLTGSFFVFCSALSYSVYLICSGELVERVGATRLVAYAMLVSCVASLIQFFLIHPASVLVQPAAVYGYSVIHATVNTVLPVFMLMWAVALVGAPTASLLGMVGPVSVLFLAAWFLDEPITVWQLAGTALVLAGVFVLAGRRRPARP”, the protein production entry is “failed”.

In the case of “MNNTNPLVSIIVPVYKVERYIHRSIDSLLRQTYNNLEIILVDDGSPDNCPFICDKYAMQDNRIRVIHKSNGGLSDARNAALNVMTGQYVTFVDSDDYIADNMIEKFIETVKLYQCNMVVAGMNIIDKNNQIYDYRRTLTSTLSTGIDITRKLLKDVFPFNFVCAKIFESSLFEEIRFPVGRHYEDTATTYKLTHKCERIYCIADCLYFYELEREGNITSELNTSKAIKSYIDGCLNSREQIFFCQKHKDFSDLLPVLTKRLQLWALLAIQSAISLGYKEYMFYYHQIRIYIRSLSYTQRMTHLQIALTFPIIYYSLYPLLSRLKKMYKN”, the protein production entry is listed as “failed”.

“MAKLTTDSPLCRKIVRSFLNFLDSVEVAPGVDEEGLEVARECLREAFKLNSDSSRDDDDDSFKPISLVNLFTSLDNNETIPPPPPPPVAATTQDPSSSGSHVSVDTCKEPSFTGTSRDELFGQLFGALEKVRYFRNTPDGDDDPAQLEKATRIFHDCVNEMEKSGCQTFDVNSLAETLKCQGNKAMQSNLYLEAVELYSFAIALTDKNAVFYCNRAAAYTQINMCSEAIKDCLKSIEIDPNYSKAYSRLGLAYYAQGKYAEAIEKGFKKALLLDPHNESVKENIRVAEQKIREEQQRQRRSQQNTSTFYTQEPEMGGGQGIPSQFSMPVNPDLMSMFMNMAGNTFPGNHSRNNEGGAGGDGTRNGADEPEIHVGGNINIDLGGTEQMPEDLSGALRSMMQMFGGSMGGTGNNNPQDSNGAQGRPSGN”: the protein production result is “failed”.

Take “MDTLKVRDAQEVEDAVRAAIANEQPIEIVGHGSKRSIGQLMSTNAVLELSALNAVTAYEPNELIITVQAGAPMADVLSLIDSKNQQFAFEPMDTATLLGTTPGAGTVAGMISAGLAGPRRIKAGGARDHLLGANAVSGFGESFKAGGKVVKNVTGYDLCKLLAGSWGTLAVMTEVTLKVTPRPESERTLVLRGLADVVANKAMTAALGSPYDVTGAAHLPGSALRTTAGALAEIAQPDQSLTLLRLEGITSSASHRAQSLRAALKSFGDAELIEDDASAALWRAVRDVEPFAASGPRALWPVWRIVCPPAAGGAFGEQLSRESGGEVIYDWGGGLIWAALPPATDGHAKALRQRVEKIGGHATLIRGSDAVRAGIDIFHPQPAGLAALGSRVKRSFDPTNILNRGRMSRGSAT”: the protein production result is reported as “failed”.

Regarding “MDLIGLRIRNIRKIKQLTLKEAAKGIISVPYLANIENGVKVASFETLMHIAKRLEIPEEALLIGNEDLNKELLQELKQIFDLLVFSNTKEAGDRLDQIAANVDLLCESPVIELSFYWLQAGFYYKTWEFSKAREIERKYLNSNEKRVVESFPPDLLSYYYYGQAVKHSHATCDYQLAVEYWEKSIDLTDKAAFQVVFQVGLCINYICLNNYEPALKHIECAWNLIKRFPSKDQERITAILYLYGYINFQIGFMTEAKRKFEEVLVFFNMYPEAKTMYSFLVRFKLAEIERVEGNHELFDEKIVCLYEELMAHEASEIGFNNNDYLVITELMVIFAEQGSVLEASNLLAIINKVTEQVMEINFFVTYTETLLLYHQNKQSSYEKKMLDLLKKIDESNDPALIERVKKHASKHFADSTKYKMAYNILA”, the protein production entry is on record as “failed”.

As for “TSVKEFAMKHDHFVVQSPDKPAQQLLLLFHGVGDNPVAMGEIGSWFAPLFPDALVVSVGGAEPSGNPAGRQWFSVQGITEDNRQARVDAIMPTFIETVRYWQKQSGVGANATALIGFSQGAIMALESIKAEPGLASRVIAFNGRYASLPETASTATTIHLIHGGEDPVIDLAHAVAAQEALISAGGDVTLDIVEDLGHAIDNRSMQLALDHLRYTIPKHY”, the protein production entry is given as “failed”.

In the case of “MAFPEYSPAASAATFADLQIHPRVLRAIGDVGYESPTAIQAATIPALMAGSDVVGLAQTGTGKTAAFAIPMLSKIDITSKVPQALVLVPTRELALQVAEAFGRYGAYLSQLNVLPIYGGSSYAVQLAGLRRGAQVVVGTPGRVIDHLERATLDLSRVDFLVLDEADEMLTMGFADDVERILSETPEYKQVALFSATMPPAIRKLSAKYLHDPFEVTCKAKTAVAENISQSYIQVARKMDALTRVLEVEPFEAMIVFVRTKQATEEIAEKLRARGFSAAAISGDVPQAQRERTITALRDGDIDILVATDVAARGLDVERISHVLNYDIPHDTESYVHRIGRTGRAGRSGAALIFVSPRELHLLKAIEKATRQTLTEAQLPTVEDVNTQRVAKFADSITNALGGPGIELFRRLVEEYEREHDVPMADIAAALAVQCRGGEAFLMAPDPPLSRRNRDQRRDRPQRPKRRPDLTTYRVAVGKRHKIGPGAIVGAIANEGGLHRSDFGQIRIGPDFSLVELPAKLPRATLKKLAQTRISGVLIDLRPYRPPDAARRHNGGKPRRKHVG”, the protein production entry is “failed”.

As for “MKKVLVGLLAIMVMIIASGYTYYKMNYGGESYYVQILVNGEREETTADDHTPMVIYHYKLDSFNSKGDKKLVKFMASHNLRNQAYLELTYNKHKGVTNWNEVQEKEIPKPALKELQSLENLEHHHHHH”, the protein production entry was “failed”.

As for “MTNLFLGFLVISFCLLGNLIHAADGSIHDYNNSGGFTKIANARYFVGGSEGIYGSEFLDVHHASSDTPLLKGNSFIRFDDITFVRTKESASKQNSTLAAAGLVEAILFEVKQRDRVGGSFFKSEDMCCTPKLADAGSCNLGEVMISADPNDPEWPKRIPTFFKRGEEEVKMSPEAVIIKKTGLYTVYFMTCDPELDGATIRGRTVWKNRGGYLQGEKAPLKKFYASMLLAYVVLGLVWFPQVAQYWKDGIQLHSHINFVIAFTMGELAFLYLDFVYLDSAGTSPMEVTVWAITLSSMRKALSRLLLLVISSGFGIVRPTLGGITLKMLLIGVLCFVISESLGLAMQFGNISENGMNYLMLSWAILETCFIQWIFRSLSKTLKKLKLNKRNITKLQLYKMFATVLVIMVVLSFAWIYVEVYLYSSLSQFWKVKWIVPTLWYILSYAMLVLICLFWPPSEKPMRYLYVADMEEETEEEDDLSTAETGMNATKAEYERSERKTLLEAFILLLGNIPGEK”, the protein production entry is given as “failed”.

On to “MARRSICEERRQQAGAGQPRGRCSDWQRRQRTLRPDATPMPADGRPRCSCLFSLLLSDPDLWKSWMSSQTAAERELAELLVESLNLEDVQPADIDPEAPLFNTGLGLDSIDALELALAISKRYGFQLRSDNDENRRIFASLRALSAHVQANKTV”, for which the protein production entry is “failed”.
